The supplement of paper PMC9112550, “Optimization of the antimicrobial peptide Bac7 by deep mutational scanning” (BMC Biology, 2022)

system: Escherichia coli TOP10; assay: shrunken log2 fold change of peptide-encoding DNA abundance (4.5 h post-induction vs induction); higher = less antimicrobial activity (less host growth inhibition); details: time post-induction: 4.5 h; library: site-saturation at positions 5, 18, 19, 20
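Also: peptides expressed intracellularly from a pBAD plasmid library in pooled LB shake-flask culture, induced with 0.3% L-arabinose, DNA abundance read by NGS, three biological replicates, DESeq2 with apeglm shrinkage.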

Row | Sequence | shrunken log2 fold change
1 | RRIRWRPPRLPRPRPRPMEMPRP | 0.0108
2 | RRIRPRPPRLPRPRPRPGYSPRP | -0.0781
3 | RRIRSRPPRLPRPRPRPHELPRP | -0.101
4 | RRIRSRPPRLPRPRPRPRWKPRP | 0.206
5 | RRIRLRPPRLPRPRPRPTEHPRP | 0.121
6 | RRIRCRPPRLPRPRPRPSNMPRP | -0.604
7 | RRIRERPPRLPRPRPRPNLHPRP | 0.504
8 | RRIRKRPPRLPRPRPRPFYTPRP | -0.109
9 | RRIRERPPRLPRPRPRPDGTPRP | 0.0123
10 | RRIRQRPPRLPRPRPRPLQYPRP | -0.0199
11 | RRIRERPPRLPRPRPRPFCGPRP | -0.058
12 | RRIRQRPPRLPRPRPRPWVAPRP | -0.182
13 | RRIRHRPPRLPRPRPRPSQAPRP | -0.142
14 | RRIRPRPPRLPRPRPRPAATPRP | 0.809
15 | RRIRQRPPRLPRPRPRPWINPRP | -0.408
16 | RRIRTRPPRLPRPRPRPPSWPRP | 0.345
17 | RRIRGRPPRLPRPRPRPICLPRP | 0.277
18 | RRIRSRPPRLPRPRPRPSEHPRP | -0.579
19 | RRIRMRPPRLPRPRPRPGFAPRP | 1.35
20 | RRIRSRPPRLPRPRPRPIFMPRP | -0.117
21 | RRIRQRPPRLPRPRPRPQMLPRP | 0.0203
22 | RRIRIRPPRLPRPRPRPCEYPRP | -0.115
23 | RRIRMRPPRLPRPRPRPQFWPRP | 0.245
24 | RRIRFRPPRLPRPRPRPHRRPRP | 0.189
25 | RRIRVRPPRLPRPRPRPDNCPRP | -0.0588

Row | Sequence | shrunken log2 fold change
26 | RRIRQRPPRLPRPRPRPMGPPRP | -0.0254
27 | RRIRCRPPRLPRPRPRPKRFPRP | 0.322
28 | RRIRHRPPRLPRPRPRPWDTPRP | -0.164
29 | RRIRMRPPRLPRPRPRPNKSPRP | 0.0117
30 | RRIRKRPPRLPRPRPRPSIEPRP | 0.0829
31 | RRIRCRPPRLPRPRPRPVQNPRP | -0.22
32 | RRIRMRPPRLPRPRPRPPWTPRP | 1.15
33 | RRIRFRPPRLPRPRPRPAQMPRP | 0.121
34 | RRIRARPPRLPRPRPRPNCQPRP | 0.267
35 | RRIRMRPPRLPRPRPRPHFAPRP | 0.194
36 | RRIRNRPPRLPRPRPRPYTGPRP | -0.0137
37 | RRIRTRPPRLPRPRPRPVCNPRP | -0.345
38 | RRIRARPPRLPRPRPRPMFNPRP | -0.132
39 | RRIRRRPPRLPRPRPRPPGWPRP | -0.0607
40 | RRIRRRPPRLPRPRPRPKLVPRP | 0.485
41 | RRIRARPPRLPRPRPRPAAWPRP | 0.613
42 | RRIRWRPPRLPRPRPRPPTKPRP | 4.13
43 | RRIRHRPPRLPRPRPRPRGAPRP | 0.152
44 | RRIRLRPPRLPRPRPRPEWRPRP | -0.0482
45 | RRIRERPPRLPRPRPRPHCFPRP | 0.0259
46 | RRIRLRPPRLPRPRPRPMNSPRP | -0.406
47 | RRIRTRPPRLPRPRPRPLSWPRP | 0.0654
48 | RRIRERPPRLPRPRPRPNDCPRP | -0.0231
49 | RRIRPRPPRLPRPRPRPLEGPRP | 0.179
50 | RRIRRRPPRLPRPRPRPPHAPRP | 1.52

Row | Sequence | shrunken log2 fold change
51 | RRIRSRPPRLPRPRPRPHHLPRP | -0.903
52 | RRIRFRPPRLPRPRPRPKCIPRP | -0.338
53 | RRIRYRPPRLPRPRPRPDIPPRP | -0.119
54 | RRIRTRPPRLPRPRPRPIWIPRP | -0.00704
55 | RRIRIRPPRLPRPRPRPNHCPRP | -0.937
56 | RRIRRRPPRLPRPRPRPLNRPRP | -0.169
57 | RRIRFRPPRLPRPRPRPSLLPRP | -0.311
58 | RRIRRRPPRLPRPRPRPRYYPRP | -0.438
59 | RRIRCRPPRLPRPRPRPGKQPRP | -0.106
60 | RRIRYRPPRLPRPRPRPPEQPRP | 0.357
61 | RRIRARPPRLPRPRPRPWLRPRP | 0.228
62 | RRIRYRPPRLPRPRPRPWVWPRP | -0.111
63 | RRIRNRPPRLPRPRPRPQPKPRP | 0.0668
64 | RRIRKRPPRLPRPRPRPPWYPRP | 0.131
65 | RRIRYRPPRLPRPRPRPQCMPRP | -0.931
66 | RRIRHRPPRLPRPRPRPQAWPRP | 0.00326
67 | RRIRGRPPRLPRPRPRPEYWPRP | 1.03
68 | RRIRIRPPRLPRPRPRPGRVPRP | 0.0447
69 | RRIRFRPPRLPRPRPRPWQAPRP | 0.0155
70 | RRIRIRPPRLPRPRPRPTEVPRP | 0.232
71 | RRIRMRPPRLPRPRPRPPQRPRP | 1.09
72 | RRIRHRPPRLPRPRPRPSVNPRP | -0.0443
73 | RRIRVRPPRLPRPRPRPCKNPRP | -0.0206
74 | RRIRDRPPRLPRPRPRPKQQPRP | -0.053
75 | RRIRYRPPRLPRPRPRPNSMPRP | -1.77

Row | Sequence | shrunken log2 fold change
76 | RRIRVRPPRLPRPRPRPYDEPRP | -0.0163
77 | RRIRNRPPRLPRPRPRPGGMPRP | -0.0941
78 | RRIRKRPPRLPRPRPRPHMTPRP | 0.0202
79 | RRIRIRPPRLPRPRPRPIQMPRP | -0.203
80 | RRIRYRPPRLPRPRPRPKQPPRP | 0.102
81 | RRIRDRPPRLPRPRPRPICDPRP | 0.137
82 | RRIRARPPRLPRPRPRPTHMPRP | 0.156
83 | RRIRARPPRLPRPRPRPPRDPRP | 1.04
84 | RRIRARPPRLPRPRPRPHSWPRP | 0.475
85 | RRIRRRPPRLPRPRPRPILKPRP | 0.333
86 | RRIRDRPPRLPRPRPRPCKLPRP | -0.0175
87 | RRIRGRPPRLPRPRPRPEGMPRP | 1.34
88 | RRIRRRPPRLPRPRPRPVSNPRP | -0.111
89 | RRIRCRPPRLPRPRPRPGNVPRP | -0.357
90 | RRIRWRPPRLPRPRPRPIKNPRP | 0.136
91 | RRIRKRPPRLPRPRPRPDMCPRP | 0.217
92 | RRIRHRPPRLPRPRPRPNKPPRP | -0.0637
93 | RRIRMRPPRLPRPRPRPTEQPRP | -0.0171
94 | RRIRWRPPRLPRPRPRPVITPRP | 0.362
95 | RRIRPRPPRLPRPRPRPYMSPRP | -0.636
96 | RRIRERPPRLPRPRPRPEQFPRP | -0.0286
97 | RRIRDRPPRLPRPRPRPTRMPRP | 0.154
98 | RRIRHRPPRLPRPRPRPCMIPRP | -0.277
99 | RRIRHRPPRLPRPRPRPKFSPRP | -0.304
100 | RRIRQRPPRLPRPRPRPKSYPRP | -0.0861

Row | Sequence | shrunken log2 fold change
101 | RRIRNRPPRLPRPRPRPSAYPRP | -0.42
102 | RRIRSRPPRLPRPRPRPVFCPRP | -0.024
103 | RRIRDRPPRLPRPRPRPSMEPRP | 0.0308
104 | RRIRYRPPRLPRPRPRPDKTPRP | 0.0325
105 | RRIRRRPPRLPRPRPRPWIIPRP | -0.021
106 | RRIRHRPPRLPRPRPRPSRDPRP | 0.234
107 | RRIRMRPPRLPRPRPRPPHDPRP | 1.47
108 | RRIRPRPPRLPRPRPRPSYRPRP | -0.342
109 | RRIRRRPPRLPRPRPRPSFIPRP | -0.391
110 | RRIRQRPPRLPRPRPRPRTCPRP | -0.576
111 | RRIRTRPPRLPRPRPRPHIPPRP | -0.769
112 | RRIRERPPRLPRPRPRPEICPRP | 0.162
113 | RRIRHRPPRLPRPRPRPWTWPRP | -0.00897
114 | RRIRTRPPRLPRPRPRPFPVPRP | -0.177
115 | RRIRDRPPRLPRPRPRPQQMPRP | -0.0585
116 | RRIRSRPPRLPRPRPRPSTLPRP | 0.658
117 | RRIRPRPPRLPRPRPRPKMKPRP | 1.05
118 | RRIRCRPPRLPRPRPRPAQQPRP | 0.342
119 | RRIRWRPPRLPRPRPRPPVFPRP | 0.384
120 | RRIRNRPPRLPRPRPRPYSCPRP | -1.1
121 | RRIRNRPPRLPRPRPRPQFGPRP | -0.508
122 | RRIRKRPPRLPRPRPRPESSPRP | -0.000321
123 | RRIRARPPRLPRPRPRPHRHPRP | -0.0481
124 | RRIRVRPPRLPRPRPRPPNIPRP | -0.475
125 | RRIRNRPPRLPRPRPRPVGLPRP | 0.0874

Row | Sequence | shrunken log2 fold change
126 | RRIRWRPPRLPRPRPRPELHPRP | 0.308
127 | RRIRYRPPRLPRPRPRPSLYPRP | -1
128 | RRIRDRPPRLPRPRPRPTHQPRP | 0.0642
129 | RRIRIRPPRLPRPRPRPRIFPRP | -1.13
130 | RRIRTRPPRLPRPRPRPAAKPRP | 0.217
131 | RRIRLRPPRLPRPRPRPRIYPRP | -0.636
132 | RRIRARPPRLPRPRPRPPGNPRP | 0.574
133 | RRIRYRPPRLPRPRPRPKETPRP | -0.00674
134 | RRIRPRPPRLPRPRPRPHRNPRP | -0.11
135 | RRIRHRPPRLPRPRPRPEYDPRP | -0.0789
136 | RRIRSRPPRLPRPRPRPNFRPRP | -0.113
137 | RRIRFRPPRLPRPRPRPVNEPRP | -0.288
138 | RRIRKRPPRLPRPRPRPWGWPRP | 0.691
139 | RRIRKRPPRLPRPRPRPDSYPRP | -0.00206
140 | RRIRARPPRLPRPRPRPRDYPRP | 0.204
141 | RRIRHRPPRLPRPRPRPSNAPRP | -0.38
142 | RRIRRRPPRLPRPRPRPRPNPRP | 0.624
143 | RRIRCRPPRLPRPRPRPDRPPRP | 0.19
144 | RRIRIRPPRLPRPRPRPVEMPRP | -0.299
145 | RRIRYRPPRLPRPRPRPHLQPRP | -0.388
146 | RRIRFRPPRLPRPRPRPCATPRP | 0.0672
147 | RRIRIRPPRLPRPRPRPEFKPRP | 0.387
148 | RRIRIRPPRLPRPRPRPPSLPRP | 0.18
149 | RRIRTRPPRLPRPRPRPMKEPRP | -0.164
150 | RRIRHRPPRLPRPRPRPLAIPRP | -0.346
